Measurements published in patent US20240052042A1 (Novartis, published 2024).

Tests used:
[1] = molecular target: T1, human Natriuretic Peptide Receptor 1 (hNPR1) (human, UniProt P16066 33-473, limits assumed); test: SET, FabCys
T1 construct: pannings used NPR1-hFc; also called NPR1-hFc
T1 sequence: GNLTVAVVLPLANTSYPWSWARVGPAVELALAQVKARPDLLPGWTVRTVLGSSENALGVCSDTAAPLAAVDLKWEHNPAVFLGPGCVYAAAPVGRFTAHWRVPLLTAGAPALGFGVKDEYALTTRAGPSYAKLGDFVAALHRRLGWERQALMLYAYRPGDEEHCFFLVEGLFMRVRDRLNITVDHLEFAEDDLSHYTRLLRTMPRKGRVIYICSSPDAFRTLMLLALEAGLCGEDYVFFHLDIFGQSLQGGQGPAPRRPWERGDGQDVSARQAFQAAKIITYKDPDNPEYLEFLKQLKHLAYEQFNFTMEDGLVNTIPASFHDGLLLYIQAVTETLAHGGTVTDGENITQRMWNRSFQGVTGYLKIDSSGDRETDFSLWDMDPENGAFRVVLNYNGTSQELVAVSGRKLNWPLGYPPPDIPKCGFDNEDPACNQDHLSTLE

[2] = molecular target: T2, hNPR1-ANP complex (human, UniProt P01160 124-151, limits assumed); test: SET, FabCys
T2 construct: hNPR1 antigen in the presence of ANP; also called hNPR1 + 100 nM ANP
T2 sequence: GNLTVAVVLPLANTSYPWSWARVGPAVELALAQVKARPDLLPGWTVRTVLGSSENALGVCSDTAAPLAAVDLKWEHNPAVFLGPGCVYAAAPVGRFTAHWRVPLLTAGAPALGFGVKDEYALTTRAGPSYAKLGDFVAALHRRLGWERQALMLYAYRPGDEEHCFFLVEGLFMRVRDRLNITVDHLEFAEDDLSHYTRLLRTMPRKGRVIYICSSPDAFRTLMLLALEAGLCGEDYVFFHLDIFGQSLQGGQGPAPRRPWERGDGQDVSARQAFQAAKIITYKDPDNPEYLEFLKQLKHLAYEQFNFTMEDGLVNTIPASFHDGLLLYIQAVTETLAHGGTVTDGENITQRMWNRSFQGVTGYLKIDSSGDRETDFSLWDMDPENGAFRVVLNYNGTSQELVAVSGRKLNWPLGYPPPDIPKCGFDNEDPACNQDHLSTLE
T2 sequence (peptide): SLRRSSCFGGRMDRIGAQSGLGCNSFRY

[3] = molecular target: T3, rat NPR1 (rNPR1) (rat, UniProt P18910 29-469, limits assumed); test: SET, FabCys
T3 construct: Soluble antigen
T3 sequence: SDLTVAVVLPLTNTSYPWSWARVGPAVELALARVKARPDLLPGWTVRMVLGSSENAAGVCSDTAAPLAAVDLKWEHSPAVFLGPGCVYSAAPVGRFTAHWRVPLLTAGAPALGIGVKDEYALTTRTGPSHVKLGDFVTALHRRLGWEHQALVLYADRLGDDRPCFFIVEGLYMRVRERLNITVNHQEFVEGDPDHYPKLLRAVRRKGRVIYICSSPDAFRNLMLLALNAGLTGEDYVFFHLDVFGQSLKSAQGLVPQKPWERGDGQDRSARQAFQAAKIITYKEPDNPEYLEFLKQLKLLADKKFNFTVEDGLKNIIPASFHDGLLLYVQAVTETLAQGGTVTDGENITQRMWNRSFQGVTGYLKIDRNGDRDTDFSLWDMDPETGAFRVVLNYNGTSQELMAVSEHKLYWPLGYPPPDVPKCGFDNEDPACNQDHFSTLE

[4] = molecular target: T4, rNPR1-ANP complex (rat, UniProt P01160 124-151 (human entry), limits assumed); test: SET, FabCys
T4 construct: rNPR1 antigen in the presence of ANP; also called rNPR1 + 100 nM ANP
T4 sequence: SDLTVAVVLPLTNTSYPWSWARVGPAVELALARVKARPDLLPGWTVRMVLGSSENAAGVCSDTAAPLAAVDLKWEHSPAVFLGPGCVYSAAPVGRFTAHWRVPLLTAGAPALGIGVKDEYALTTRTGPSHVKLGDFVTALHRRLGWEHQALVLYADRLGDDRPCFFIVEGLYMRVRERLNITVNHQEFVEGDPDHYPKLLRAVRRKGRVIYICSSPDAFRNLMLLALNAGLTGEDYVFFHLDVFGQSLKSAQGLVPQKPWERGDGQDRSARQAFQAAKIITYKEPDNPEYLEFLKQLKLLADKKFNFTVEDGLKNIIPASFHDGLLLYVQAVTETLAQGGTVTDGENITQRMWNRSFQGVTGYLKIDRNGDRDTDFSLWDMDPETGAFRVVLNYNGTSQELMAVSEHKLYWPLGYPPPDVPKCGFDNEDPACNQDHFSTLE
T4 sequence (peptide): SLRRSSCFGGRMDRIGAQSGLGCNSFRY

[5] = molecular target: T2, hNPR1-ANP complex; test: Octet, FabCys
[6] = molecular target: T3, rat NPR1 (rNPR1); test: Octet, FabCys
[7] = molecular target: T4, rNPR1-ANP complex; test: Octet, FabCys
[8] = molecular target: T5, human NPR1 on CHO-K1 cells (human, UniProt P16066 33-1061); test: cell-based or functional assay
T5 sequence: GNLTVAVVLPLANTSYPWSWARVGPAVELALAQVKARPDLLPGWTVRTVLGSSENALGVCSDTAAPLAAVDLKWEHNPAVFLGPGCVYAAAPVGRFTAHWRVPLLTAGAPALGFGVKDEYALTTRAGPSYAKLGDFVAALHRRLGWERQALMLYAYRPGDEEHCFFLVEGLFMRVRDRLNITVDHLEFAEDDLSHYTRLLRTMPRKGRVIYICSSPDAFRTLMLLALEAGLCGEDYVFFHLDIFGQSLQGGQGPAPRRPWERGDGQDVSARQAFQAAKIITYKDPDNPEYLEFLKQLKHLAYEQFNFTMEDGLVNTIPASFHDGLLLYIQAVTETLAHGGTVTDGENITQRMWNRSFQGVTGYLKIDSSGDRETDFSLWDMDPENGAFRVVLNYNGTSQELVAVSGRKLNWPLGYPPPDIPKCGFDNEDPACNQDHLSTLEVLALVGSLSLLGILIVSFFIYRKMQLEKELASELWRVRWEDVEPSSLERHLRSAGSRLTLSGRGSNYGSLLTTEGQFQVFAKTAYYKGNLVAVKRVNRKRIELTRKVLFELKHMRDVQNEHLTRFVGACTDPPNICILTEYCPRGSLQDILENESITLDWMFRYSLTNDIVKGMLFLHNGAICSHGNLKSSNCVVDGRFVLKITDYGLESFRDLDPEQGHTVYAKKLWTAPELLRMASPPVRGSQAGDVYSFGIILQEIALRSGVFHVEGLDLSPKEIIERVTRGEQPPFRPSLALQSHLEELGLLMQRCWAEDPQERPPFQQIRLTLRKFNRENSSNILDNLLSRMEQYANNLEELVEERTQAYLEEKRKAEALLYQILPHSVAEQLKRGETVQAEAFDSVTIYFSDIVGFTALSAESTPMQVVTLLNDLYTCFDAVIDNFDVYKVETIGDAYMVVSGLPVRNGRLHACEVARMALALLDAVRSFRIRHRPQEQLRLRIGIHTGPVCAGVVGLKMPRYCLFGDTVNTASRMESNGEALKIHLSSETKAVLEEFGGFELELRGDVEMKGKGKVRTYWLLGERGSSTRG

[9] = molecular target: T1, human Natriuretic Peptide Receptor 1 …; test: FabCys affinity (Octet per Table 18 comment)
[10] = molecular target: T2, hNPR1-ANP complex; test: FabCys affinity (Octet per Table 18 comment)
[11] = molecular target: T4, rNPR1-ANP complex; test: FabCys affinity (Octet per Table 18 comment)
[12] = molecular target: T1, human Natriuretic Peptide Receptor 1 …; test: FabCys, parental value by Octet (table comment), as in Table 14
[13] = molecular target: T2, hNPR1-ANP complex; test: as above
[14] = molecular target: T4, rNPR1-ANP complex; test: as above

B1: ZZ13 (FabCys format) (Fab, V domains shown)
VH: EVQLVESGGGLVQPGGSLRLSCAASGFTFSRYYINWVRQAPGKGLEWVASIHQHGLETRYVESVKGRFTISRDNAKNSLYLQMNSLRAEDTAVYYCARSLRRRSTEHAGFDVWGQGTLVTVSS
VL: DIQMTQSPSSLSASVGDRVTITCRASQGISNYLAWYQQKPGKVPKLLIYAASTLQSGVPSRFSGSGSGTDFTLTISSLQPEDVATYYCQQADKFPYTFGQGTKVEIK
notes: Monovalent FabCys
Kd [1]: 9.9 nM
Kd [2]: 1.3 nM
Kd [3]: 2.3 nM
Kd [4]: 1.4 nM
Kd [5]: 0.14 nM
Kd [6]: 66 nM
Kd [7]: 0.1 nM

B2: YY04 (FabCys format) (Fab, V domains shown)
VH: EVQLVESGGGLVKPGGSLRLSCAASGFTFSNYWISWVRQAPGKGLEWVGRIKSKTYGGTTDYAEPVKGRFTISRDDSKNTLYLQMNSLKTEDTAVYYCAREKYSIRARGHGDYGFDVWGQGTLVTVSS
VL: DIQMTQSPSSLSASVGDRVTITCRASQGISNYLAWYQQKPGKVPKLLIYAASTLQSGVPSRFSGSGSGTDFTLTISSLQPEDVATYYCQQGYHAPFTFGQGTKVEIK
notes: Monovalent FabCys
cGMP conc [nM] at 1 µM FabCys, +0.075 nM ANP [8]: 67 nM
cGMP conc [nM] at 1 µM FabCys, without ANP [8]: 18 nM
Kd [9]: 4.9 nM
Kd [10]: 1.1 nM
Kd [11]: 1 nM
Kd [12]: 4.9 nM
Kd [13]: 1.1 nM
Kd [14]: 1 nM
